Test results from patent US20240092844.

Test system: KLF6-CDK200 RTF 8 phosphate-contact mutant 8 phosphate-contacting Arg to Gln (Homo sapiens)
Assay: cell_activity
Conditions: on-target activity reduced 12%; only CDKN1C upregulated in RNA-seq

## TTGAAACTGAAAATACTACATTATGCTA (double strand) [CDKN1C target 200]
  binding signal (% of unmodified CDK200): 88
